Data from the supplement of paper PMC9170038.

System: MS2 coat protein
Experiment: apparent KD of MS2 coat protein; designed switch direction (-1 OFF switch, 1 ON switch): -1; higher = weaker reporter binding
Procedure, shortened: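 Stalled E. coli RNA polymerase transcribed designed RNA switches on Illumina chips, which were then titrated with SNAP-549-labelled MS2 coat protein, doubling from 0.7 or 1.5 nM to 3 µM. Steps lasted from 0.8–1.5 h at the lowest concentration to 10–20 min at the highest. The apparent KD is each design's median over clusters of curve-fitted normalised fluorescence.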

[1] = Eterna round: R95, input ligand: microRNA oligo, concentration not stated
[2] = input ligand: microRNA oligo, concentration not stated
[3] = Eterna round: R95, input ligand: FMN 200 uM
[4] = Eterna round: R95, input ligand: none

Row | Sequence | apparent KD of MS2 coat protein (input ligand: FMN 200 uM) [µM] | apparent KD of MS2 coat protein (input ligand: none) [µM] | apparent KD of MS2 coat protein [1] [µM] | apparent KD of MS2 coat protein [2] [µM] | apparent KD of MS2 coat protein [3] [µM] | apparent KD of MS2 coat protein [4] [µM]
1 | AACUAUUUAGGAUAUCAGGCGAACCACAUGAGGAUCACCCAUGUGGCCCGUUGUGGUCCUUGAGAAGGAAAGAGUU [EX5 B.15] (Eterna round: R97, puzzle: Exclusion 5) | 0.0535 | 0.0227 |  |  |  | 
2 | AAUAACAGAGGAUAUACUAUUUUAUGUGUUUGUUGUUUUAAACAUGAGGAUCACCCAUGUAGAAGGCUGAGUAA [JMF 33] (puzzle: Exclusion 2) |  |  | 0.0218 |  |  | 
3 | CAGACGGCCGUAGGAUAUGCAGCAAAGACGUGAGCAGAAGGACGAUACAUGAGGAUCACCCAUGUACGUGGGUAGUGCGCAUGC [Veustean] (Eterna round: R96, puzzle: Exclusion NG 1) | 0.0198 | 0.0208 |  | 0.0144 |  | 
4 | UUACUAUGUCGCCUAAUAGCUUUUUGCUCGUCUUAUAUUACAUGAGGAUCACCCAUGUAGAUCAUGUGGCGUGACCU [JL ViennaUCT Maridi mod 4] (puzzle: Sensor v3, turn-off variant 2) |  |  | 0.0391 |  | 0.246 | 0.217
5 | AGGAGUAGUAAGGAUAUAGCGGACUAGUCGUCGUUAGAAGGUACUACAUGAGGAUCACCCAUGUUGACCUGAGC [EX6 B.14] (Eterna round: R97, puzzle: Exclusion 6) | 0.0465 | 0.0196 |  |  |  | 
6 | UAUCCACAUGAGGAUCACCCAUGUGAGGAUAUGUCCAUAUUCGGCAAAUCGGAUAUGGACAGAAGGCACACCGG [JR_Exclusion1_Sub011] (puzzle: Exclusion 1) |  |  | 0.0354 |  |  | 
7 | UUCCCACAUGAGGAUCACCCAUGUGAGGAUAUGGGCGGCGCCGCAAAAGCGGCGCCGCCCAGAAGGCGCAUGAU [Malcxlusion 8 - Jieux - Exclusion 1] (Eterna round: R97, puzzle: Exclusion 1) | 0.0216 | 0.0184 |  |  |  | 
8 | CAUUUGUGAGGAUAUCAGGUGUGCUAGCGUACUGGUACAUCUGAGAAGGCACAUGAGGAUCACCCAUGUUCCUC [Mat - Exclusion 4 - Mod of JL - D35] (puzzle: Exclusion 4) |  |  | 0.0441 |  |  | 
9 | CUUCGACAUGAGGAUCACCCAUGUCAGGAUAUUGUGUAUCGGGUUUUUUACGGAAAGGCAAGAAGGGAUGUGUG [LRO-Excl1-07] (puzzle: Exclusion 1) |  |  | 0.0254 |  |  | 
10 | AGUACUAACACGAAAGUGUUAGUACUAUAAGCUUGUGAUACAUGAGGAUCACCCAUGUCCUCAUAAGCUCGUCUUAU [Mat - Sensor v3 - Turn-off var 2 - D101] (puzzle: Sensor v3, turn-off variant 2) |  |  | 1.82 |  | 0.019 | 0.0196
11 | UGCGGGCUUUUGAGACCUCACAUGAGGAUCACCCAUGUGCUUGUCUUGUAAGUGGGUAGGUCGUUGGCUGACUCACA [Sensor-V1 #100] (Eterna round: R97, puzzle: Sensor, turn-off variant 1) | 0.0188 | 0.0175 |  |  |  | 
12 | GGAUCGAAUGUGAGGAUAUGCUGGUCCUUGGAUCAGCAGAAGGCACAUGAGGAUCACCCAUGUGACCAAGAUCC [Eli bmx4 4.73] (Eterna round: R97, puzzle: Brourd's mod of Exclusion 4) | 0.45 | 0.0441 |  |  |  | 
13 | AGUAACCGUCACGAAAGUGAUGGUUACACAAGUAAAUGUACAUGAGGAUCACCCAUGUCCUCAUUUGCUCGUCUUAU [Sensor 3 - 46] (puzzle: Sensor v3, turn-off variant 2) |  |  | 0.373 |  | 0.152 | 0.23
14 | CAGUACUGAGGAUAUACAUGAGGAUCACCCAUGUGCUCUAGCUAGGAUACUAGCAUUAGUAGAAGGCAGUACUG [Fiskers Ex 3 828 mod 8] (puzzle: Exclusion 3) |  |  | 0.0152 |  |  | 
15 | ACCGAUGUGCAAGGAUAUGACAUGAGGAUCACCCAUGUCAAAACAAGAAGAACGGGUGUGCCUCCUUAGAAGGUGCACAAACGA [Eternabot solution 2] (Eterna round: R96, puzzle: Exclusion NG 2) | 0.0261 | 0.024 |  | 0.0171 |  | 
16 | CUCCUACUUGUAGGAUAUCAGAGAUAACAUGAGGAUCACCCAUGUUGGGUCAUCAACUCAGUCGGUGAGAAGGACAGAAGUUGG [Eternabot solution 42] (Eterna round: R96, puzzle: Exclusion NG 2) | 0.0961 | 0.0632 |  | 0.0686 |  | 
17 | AGUACUAACACGAAAGUGUUAGUACAAUAAGCUUGUGUUACAUGAGGAUCACCCAUGUCCUCAUAAGCUCGUCUUAU [JL-sv3-2.14 mat747 mod] (puzzle: Sensor v3, turn-off variant 2) |  |  | 0.0485 |  | 0.1 | 0.0981

Row | Sequence | apparent KD of MS2 coat protein (input ligand: FMN 200 uM) [µM] | apparent KD of MS2 coat protein (input ligand: none) [µM] | apparent KD of MS2 coat protein [1] [µM] | apparent KD of MS2 coat protein [2] [µM] | apparent KD of MS2 coat protein [3] [µM] | apparent KD of MS2 coat protein [4] [µM]
18 | UCACGGGACUGAGGAUAUACAUGAACCAUUUUUGUAGAAGGCAGAAUGUUUGAUCAUACACUAAACAUGAGGAUCACCCAUGUU [JR_ExcNG1_Sub026] (Eterna round: R96, puzzle: Exclusion NG 1) | 0.016 | 0.0201 |  | 0.0163 |  | 
19 | ACAUGAGGAUCACCCAUGUUCGGCUGGUCCGUUUCGGCUGUCGAGGAUAUAGUUCGGUGUCCGCGCUAGAAGGCGGGAGCUGGC [Aenatbe mod 64] (Eterna round: R96, puzzle: Exclusion NG 3) | 0.167 | 0.0685 |  | 0.039 |  | 
20 | CGGCAUGUAGAAGGAUAUCUGCACGUUUAGUGCAGAGAAGGUCUAACAUGAGGAUCACCCAUGUAGAUCAUUAACCGAUUAAUU [ENG1/8-A2] (Eterna round: R96, puzzle: Exclusion NG 1) | 0.0195 | 0.0121 |  | 0.0104 |  | 
21 | GAGGGACAUGAGGAUCACCCAUGUGAGGAUAUGGAGAGGAGGAGGGAGGAGGAGGAGGCCAGAAGGCGCAAGAA [THE BEST I guess] (puzzle: Exclusion 1) |  |  | 0.028 |  | 0.0226 | 0.046
22 | AAUCCACAUGAGGAUCACCCAUGUGAGGAUAUGAUACUAUGUACUUCGGUACAUAGUAUCAGAAGGCACAGGUC [Ex1-3: 58] (puzzle: Exclusion 1) |  |  | 0.025 |  |  | 
23 | CCACCUCACGUCAGGAUAUCCAUCUCGAGUGAGGAGGAGAAGGGACAUGAGGAUCACCCAUGUAUAGAAAGAAA [Veaonce] (Eterna round: R97, puzzle: Brourd's mod of Exclusion 4) | 0.0351 | 0.0221 |  |  |  | 
24 | CUUUUGUGAGGAUAUUAGUAGUAAAAAAAUAAAAUUACUACUGAGAAGGCACAUGAGGAUCACCCAUGUUCUUC [salish99_ex4_r3_038] (puzzle: Exclusion 4) |  |  | 0.0175 |  |  | 
25 | AAGUACCGUCACGAUAGUGAUGGUACAACAAGCAGUGAAACAUGAGGAUCACCCAUGUCCUCAAUUGCUCGUCUUAU [Sensor 3 - 74] (puzzle: Sensor v3, turn-off variant 2) |  |  | 0.195 |  | 0.0399 | 0.0375
26 | UUUAAAACAUAGGAUAUCGAAUAAAUCAUUUAACGAGAAGGAUGAACAUGAGGAUCACCCAUGUGGUAUCAUGG [Mat - Exclusion 6 - JL Mod - D20] (puzzle: Exclusion 6) |  |  | 0.183 |  | 0.219 | 0.207
27 | CUGAAAUUCGUAAGGAUAUGUUCCAUCAAAUAGGAGCAGAAGGUACAUGAGGAUCACCCAUGUCAGUAGAUCCA [Eternabot (L1) Solution 47] (Eterna round: R97, puzzle: Brourd's mod of Exclusion 4) | 0.13 | 0.0402 |  |  |  | 
28 | GAGGAGCAAGGAUAUACGAGGAUAUGGAAGGUUGGAGAGUGACAUGAGGAUCACCCAUGUAGAAGGUGCGAGGG [JR_Exclu2_Sub097] (puzzle: Exclusion 2) |  |  | 0.0434 |  |  | 
29 | UUUUAUAGAGGAUAUGCGUGAAUAUAUAUUCAUGGAAAUUUACAUGAGGAUCACCCAUGUAGAAGGCUGUGUUU [LRO-Excl2-19-mod 090 by JR] (Eterna round: R97, puzzle: Exclusion 2) | 0.0141 | 0.0145 |  |  |  | 
30 | AGAUUACAUGAGGAUCACCCAUGUCAGGAUAUCGACUGAACAGCUUCGGCUGUUCAGUCGAGAAGGGACAAUUA [Brourdxlusion 10 - Jieux - Exclusion 1] (Eterna round: R97, puzzle: Exclusion 1) | 0.122 | 0.0597 |  |  |  | 
31 | GUCUCCAGAGGAUAUCUUUUACGCGACAUGAGGAUCACCCAUGUAGAGGAGAUUGUCAGGAGAGAAGGCUGGGACG [Eternabot (L1) Solution 56] (Eterna round: R97, puzzle: Exclusion 5) | 0.0551 | 0.0427 |  |  |  | 
32 | CAUAGUAAUUAGGAUAUCUGCCGGCUGAGCCGAGGAGAAGGGAUUACAUGAGGAUCACCCAUGUGGUCCUAGAA [Lebireti] (puzzle: Exclusion 6) |  |  | 0.0201 |  | 0.0313 | 0.0199
33 | CGGUCGUCCUCAGGAUAUACAUGAGGAUCACCCAUGUUUCUAGGAUCGGUCGUCCGGUCGGUGGUGUAGAAGGGAGGGUGGCUG [random 2, A 18%] (Eterna round: R96, puzzle: Exclusion NG 2) | 0.159 | 0.0436 |  | 0.0371 |  | 
34 | CUCAAAAGUCGGUUUACACACAUGAGGAUCACCCAUGUAAGCAAACAUAUAGGCUCUACGAUUUGCUCGCUCUUAUA [Eternabot (L1) Solution 34] (Eterna round: R97, puzzle: Sensor, turn-off variant 1) | 0.0135 | 0.0132 |  |  |  | 
